In patent publication US20220054583A1 (ANBITION S R L, published 2022) one finds binding %, fold inhibitory capacity against iVR1 and IC50 data, which are given here for 5 molecules.

Assay [1] concerns the target T1, human recombinant receptor VEGFR-1, seven extracellular domains fused to the Fc domain of human IgG (R&D Systems, cat No 321-FL) (human), P17948.
T1 chain: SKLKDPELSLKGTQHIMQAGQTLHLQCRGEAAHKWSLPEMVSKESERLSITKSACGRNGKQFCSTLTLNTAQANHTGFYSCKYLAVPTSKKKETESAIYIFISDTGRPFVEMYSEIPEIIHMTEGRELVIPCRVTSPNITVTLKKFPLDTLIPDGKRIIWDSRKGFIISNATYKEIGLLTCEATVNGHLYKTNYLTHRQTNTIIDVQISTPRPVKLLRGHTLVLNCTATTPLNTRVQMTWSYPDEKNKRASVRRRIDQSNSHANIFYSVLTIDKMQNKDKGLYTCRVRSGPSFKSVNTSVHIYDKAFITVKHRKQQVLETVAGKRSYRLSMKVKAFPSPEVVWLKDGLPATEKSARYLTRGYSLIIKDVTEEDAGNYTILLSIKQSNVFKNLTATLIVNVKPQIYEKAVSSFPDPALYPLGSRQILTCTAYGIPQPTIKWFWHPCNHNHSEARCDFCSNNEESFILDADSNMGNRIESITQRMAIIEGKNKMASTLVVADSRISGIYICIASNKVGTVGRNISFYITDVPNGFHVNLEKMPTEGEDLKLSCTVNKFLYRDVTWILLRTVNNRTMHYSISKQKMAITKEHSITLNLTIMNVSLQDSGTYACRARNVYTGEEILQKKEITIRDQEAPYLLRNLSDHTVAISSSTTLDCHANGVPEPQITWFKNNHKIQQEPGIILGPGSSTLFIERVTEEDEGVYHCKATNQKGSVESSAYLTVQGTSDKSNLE
Nature of the assay: competition ELISA, residual binding of VEGF-A (5 ng/ml) to coated VEGFR-1-Fc, peptide 6250 nM.

Assay [2] deals with T1, human recombinant receptor VEGFR-1, …. Nature of the assay: competition ELISA, residual binding of PlGF (5 ng/ml) to coated VEGFR-1-Fc, peptide 3125 nM. A general note: An ELISA detects its analyte on a solid surface through an enzyme-linked reagent.
Assay [3] has the same target. The assay is described as follows: competition ELISA, residual binding of PlGF (5 ng/ml) to coated VEGFR-1-Fc, peptide 25000 nM.
Assay [4] has the same target. Nature of the assay: competition ELISA, residual binding of PlGF (5 ng/ml) to coated VEGFR-1-Fc, peptide 1560 nM.
The target is the same in assay [5]. The assay is described as follows: competition ELISA, residual binding of VEGF-A (5 ng/ml) to coated VEGFR-1-Fc, peptide 780 nM.
The target is the same in assay [6]. The assay is described as follows: competition ELISA, residual binding of VEGF-A (5 ng/ml) to coated VEGFR-1-Fc, peptide 3125 nM.
Assay [7] shares this target. The assay is described as follows: competition ELISA, residual binding of PlGF (5 ng/ml) to coated VEGFR-1-Fc, peptide 6250 nM.
For assay [8] the target is unchanged. The assay is described as follows: competition ELISA, residual binding of PlGF (5 ng/ml) to coated VEGFR-1-Fc, peptide 12500 nM.
For assay [9] the target is unchanged. The assay is described as follows: competition ELISA, residual binding of PlGF (5 ng/ml) to coated VEGFR-1-Fc, peptide 50000 nM.
For assay [10] the target is unchanged. The assay is described as follows: competition ELISA, residual binding of VEGF-A (5 ng/ml) to coated VEGFR-1-Fc, peptide 1560 nM.
Assay [11] shares this target. Nature of the assay: competition ELISA, PlGF or VEGF-A binding to coated VEGFR-1-Fc; reference iVR1.
For assay [12] the target is unchanged. The assay is described as follows: competition ELISA, residual binding of VEGF-A (5 ng/ml) to coated VEGFR-1-Fc, peptide 12500 nM.
The target is the same in assay [13]. The assay is described as follows: competition ELISA, residual binding of VEGF-A (5 ng/ml) to coated VEGFR-1-Fc, peptide 25000 nM.
The target is the same in assay [14]. Nature of the assay: competition ELISA, residual binding of VEGF-A (5 ng/ml) to coated VEGFR-1-Fc, peptide 50000 nM.
Assay [15] has the same target. The assay is described as follows: competition ELISA, PlGF binding to coated VEGFR-1-Fc.
Assay [16] has the same target. The assay is described as follows: competition ELISA, residual binding of PlGF (5 ng/ml) to coated VEGFR-1-Fc, peptide 780 nM.
The target is the same in assay [17]. The assay is described as follows: competition ELISA, VEGF-A binding to coated VEGFR-1-Fc.
The target in assay [18] is T2, human recombinant receptor VEGFR-1, seven extracellular domains fused to the Fc domain of human IgG (R&D … (human, UniProt P17948 27-758)).
T2 construct: Bought reagent; also called Flt-1; not shown: Fc domain of human IgG
The assay is described as above.

Square brackets hold non-standard residues; d marks the D form. Ends that are not written are not given here. * marks the point of attachment. Met(O2) = CS(=O)(=O)CC[C@H](N)C(=O)O; Cha = N[C@@H](CC1CCCCC1)C(=O)O; Bn = c1ccc(C*)cc1

B1: iVR1-Cys, tetrameric peptide of formula (IIb) (peptide)
peptide: H-[dE]-Cys(Bn)-[Cha]
chain 1: Lys
chain 2: Lys-[dC]-NH2
modifications: also: branched: four ECX arms on two Z1 Lys, both on Z2 Lys
As for B1, the binding % was 12.5% in [1]; 25.5% in [2]; 10.3% in assay [3]; 35.5% in assay [4]; 92.3% in [5]; 21.7% in [6]. For the same molecule, the binding % was 14.1% in assay [7]; 12.6% in assay [8]; 9.18% in assay [9]; 43.7% in assay [10]; 9.81% in assay [12]; 7.99% in assay [13]. Besides, the results for the binding % in [14] and in assay [16] were 6.5% and 83.8%, respectively. The fold inhibitory capacity against iVR1 in assay [11] stood at 10 fold. The results for the IC50 in assay [15] and in [17] were under 1000 nM and 1000 nM, respectively.

B2: iVR1, tetrameric peptide of formula (IIc) (peptide)
peptide: H-[dE]-Cys(Bn)-[Cha]
chain 1: Lys
chain 2: Lys-Gly-NH2
modifications: also: branched: four ECX arms on two Z1 Lys, both on Z2 Lys
Regarding B2, the binding % in [1] stood at 66%; in assay [2] it was 96.1%; in [3] it was 36%; in assay [4], 101%; in assay [5] it was 98.4%; in assay [6], 93.9%. Besides, the binding % in [7] was 68.5%; in assay [8], 44.6%; in [9] it was 26.3%; in assay [10] it was 96.2%; in [12], 37%; in assay [13], 21.4%. In addition, the results for the binding % in [14] and in assay [16] were 8.6% and 99.4%, respectively. For the same molecule, the IC50 in assay [15] and in assay [17] was 10000 nM each time.

B3: tetrameric peptide of formula (II) with Y2 = L-methionine sulfone (peptide)
peptide: [dE]-Cys(Bn)-[Cha]
chain 1: Lys
chain 2: Lys-[Met(O2)]
modifications: also: tetrameric: four tripeptide arms on two Z1 lysines, carried on Z2 lysine
notes: Variant of iVR1-Cys with another Y2; only Y2 is printed
For the molecule B3, in assay [18], the IC50 was determined as 4620 nM.

B4: tetrameric peptide of formula (II) with Y2 = D-serine (peptide)
peptide: [dE]-Cys(Bn)-[Cha]
chain 1: Lys
chain 2: Lys-[dS]
modifications: also: tetrameric: four tripeptide arms on two Z1 lysines, carried on Z2 lysine
notes: as for B3
In the case of B4, in [18], the IC50 stood at 2430 nM.

B5: tetrameric peptide of formula (II) with Y2 = L-cysteine (peptide)
peptide: [dE]-Cys(Bn)-[Cha]
chain 1: Lys
chain 2: Lys-Cys
modifications: also: tetrameric: four tripeptide arms on two Z1 lysines, carried on Z2 lysine
notes: Variant of iVR1-Cys with another Y2
Take B5: the IC50 in assay [18] stood at 2030 nM.

Broadly, the IC50 is the concentration that inhibits the measured activity by half.
